Test [1] deals with T1, QP534 (SIRPαV5-mFC(mIgG2a)) (human, limits assumed).
T1 construct: also called human SIRPα V5 recombinant protein (QP534)
T1 chain: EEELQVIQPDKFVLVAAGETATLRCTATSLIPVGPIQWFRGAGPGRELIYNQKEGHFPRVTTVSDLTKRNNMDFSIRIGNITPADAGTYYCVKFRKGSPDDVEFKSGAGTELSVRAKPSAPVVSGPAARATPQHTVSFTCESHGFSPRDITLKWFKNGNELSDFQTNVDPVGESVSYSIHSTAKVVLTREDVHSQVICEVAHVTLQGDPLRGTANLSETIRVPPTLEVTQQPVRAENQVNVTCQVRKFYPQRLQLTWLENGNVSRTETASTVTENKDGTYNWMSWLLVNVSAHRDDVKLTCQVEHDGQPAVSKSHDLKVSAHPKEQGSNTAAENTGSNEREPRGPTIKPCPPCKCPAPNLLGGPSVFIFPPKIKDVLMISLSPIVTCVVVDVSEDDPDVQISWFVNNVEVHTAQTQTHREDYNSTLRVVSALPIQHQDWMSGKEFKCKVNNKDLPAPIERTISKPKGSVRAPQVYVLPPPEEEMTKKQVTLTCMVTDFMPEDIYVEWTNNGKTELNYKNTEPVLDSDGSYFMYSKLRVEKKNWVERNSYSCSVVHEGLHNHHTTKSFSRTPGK
The test can be described thus: ELISA, human SIRPα V5 recombinant protein (QP534) coated, HRP anti-human Fc detection. On the technique in general: ELISA stands for enzyme-linked immunosorbent assay.

Test [2] deals with T2, SIRPα V4 fusion Fc (mouse IgG2a) (human, limits assumed).
T2 chain: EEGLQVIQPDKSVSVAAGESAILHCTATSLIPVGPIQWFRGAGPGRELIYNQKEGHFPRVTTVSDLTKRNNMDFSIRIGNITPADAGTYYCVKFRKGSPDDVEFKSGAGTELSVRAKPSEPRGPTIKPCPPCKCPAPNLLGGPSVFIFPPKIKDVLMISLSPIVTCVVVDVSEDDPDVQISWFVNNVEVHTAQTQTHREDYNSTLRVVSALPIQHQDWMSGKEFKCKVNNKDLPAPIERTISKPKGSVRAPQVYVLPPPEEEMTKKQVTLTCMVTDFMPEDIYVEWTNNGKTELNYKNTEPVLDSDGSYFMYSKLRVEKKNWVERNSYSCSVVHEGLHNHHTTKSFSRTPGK
In words: ELISA, SIRPα V4-mouse IgG2a Fc coated, anti-hFab detection; unit from the x axis Log(Conc.(nM)).

The test “QP093 (human SIRPα V1 …)” deals with T3, QP093 (human SIRPα V1 ECD(E31-R370)-mFC(IgG2a)) (human).
T3 construct: also called Human SIRPα V1 recombinant protein (QP093)
T3 chain: T1 chain with F12S
The test can be described thus: ELISA, human SIRPα V1 recombinant protein (QP093) coated, HRP anti-human Fc detection.

Test [3] addresses T4, QP538 (SIRPαV9-mFC(mIgG2a)) (human, limits assumed).
T4 construct: also called human SIRPα V9 recombinant protein (QP538)
T4 chain: T1 chain with F12S, G79S
The test can be described thus: ELISA, human SIRPα V9 recombinant protein (QP538) coated, HRP anti-human Fc detection.

Test [4] has as its target T5, human SIRPα V2 on THP-1 cells (human, UniProt P78324 31-504).
T5 construct: whole, on cells; also called THP-1 (human SIRPα V2)
The test can be described thus: FACS on THP-1 cells.

Test [5] concerns the target T6, QP537 (SIRPαV8-mFC(mIgG2a)) (human).
T6 construct: also called human SIRPα V8 recombinant protein (QP537)
In words: ELISA, human SIRPα V8 recombinant protein (QP537) coated, HRP anti-human Fc detection.

The target of the test “QP095 (human SIRPα V2 …)” is T7, QP095 (human SIRPα V2 ECD(E31-R370)-mFC(IgG2a)) (human).
T7 construct: also called human SIRPα V2 recombinant protein (QP095)
In words: ELISA, human SIRPα V2 recombinant protein (QP095) coated, HRP anti-human Fc detection.

Numbering of substitutions follows the chain as printed. Names may count otherwise.

T5 sequence (P78324 other isoform, or with tags, fused parts or gaps limits assumed): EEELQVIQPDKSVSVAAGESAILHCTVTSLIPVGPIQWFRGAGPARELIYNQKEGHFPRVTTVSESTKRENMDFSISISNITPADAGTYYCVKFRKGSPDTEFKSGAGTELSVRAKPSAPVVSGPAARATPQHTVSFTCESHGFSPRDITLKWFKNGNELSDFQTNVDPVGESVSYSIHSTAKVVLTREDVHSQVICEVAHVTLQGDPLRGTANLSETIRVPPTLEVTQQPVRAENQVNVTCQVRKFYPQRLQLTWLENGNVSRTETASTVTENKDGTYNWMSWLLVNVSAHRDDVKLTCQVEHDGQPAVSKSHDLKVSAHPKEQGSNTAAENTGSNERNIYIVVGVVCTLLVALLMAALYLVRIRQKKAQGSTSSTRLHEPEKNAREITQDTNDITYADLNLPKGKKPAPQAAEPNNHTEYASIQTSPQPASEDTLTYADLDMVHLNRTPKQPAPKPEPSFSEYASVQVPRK

B1: QP250251 (18D5 analog) (antibody, human IgG4 S228P, kappa, V domains shown)
VH: QVQLQQPGAELVRPGSSVKLSCKASGYTFTSYWVHWVKQRPIQGLEWIGNIDPSDSDTHYNQKFKDKASLTVDKSSSTAYMQLSSLTFEDSAVYYCVRGGTGTMAWFAYWGQGTLVTVSA
VL: DVVMTQTPLSLPVSLGDQASISCRSSQSLVHSYGNTYLYWYLQKPGQSPKLLIYRVSNRFSGVPDRFSGSGSGTDFTLKISRVEAEDLGVYFCFQGTHVPYTFGSGTKLEIKR
notes: also called SIRPα antibody 18D5 from OSE
On to B1, for which the EC50 – broadly, the concentration that produces a half-maximal response – in test [1] is 0.438 nM; in test [2], 0.125 nM; in the test with QP093 (human SIRPα V1 …) it was 0.438 nM; in test [3], 0.854 nM. Moreover, the binding result in test [4] was “no binding”.

B2: QP256279 (antibody, human IgG4, V domains shown)
VH: QVQLVQSGAEVKKPGASVKVSCKASGYTFTNYWINWVRQAPGQGLEWIAMIDPSDSETHYNQIFKDRATLTTDTSTSTAYMELRSLRSDDTAVYYCAMDYGSLYAMDYWGRGTLVTVSS
VL: DIVLTQSPDSLAVSLGERATINCRASQSVRSSGYNWIFWYQQKPGQPPKLLIYLASNRDSGVPDRFSGSGSGTDFTLTISSLQAEDVAVYYCQHSRELPTFGQGTKLEIK
notes: Human IgG4 heavy constant region and kappa CL
On to B2, for which the EC50 in test [2] is 0.0574 nM.

B3: QP32700279 (antibody, human IgG1, kappa, L234A L235A, V domains shown)
VH: B2 VH
VL: DIVLTQSPDSLAVSLGERATINCRASQSVRSSGYNWIFWYQQKPGQPPKLLIYLASNRDSGVPDRFSGSGSGTDFTLTISSLQAEDVAVYYCQHSRELPTFGQGTKLEIKR
notes: also called SIRPα monoclonal antibody CHO71
For the molecule B3, the EC50 in test [1] came to 0.15 nM; in test [5], 0.341 nM; with QP093 (human SIRPα V1 …), 0.161 nM; in test [3], 0.361 nM; with QP095 (human SIRPα V2 …) it was 0.186 nM; in test [4], 0.0743 nM.

B4: QP026249 (KWAR23 analog) (antibody, human IgG4 S228P, kappa)
heavy: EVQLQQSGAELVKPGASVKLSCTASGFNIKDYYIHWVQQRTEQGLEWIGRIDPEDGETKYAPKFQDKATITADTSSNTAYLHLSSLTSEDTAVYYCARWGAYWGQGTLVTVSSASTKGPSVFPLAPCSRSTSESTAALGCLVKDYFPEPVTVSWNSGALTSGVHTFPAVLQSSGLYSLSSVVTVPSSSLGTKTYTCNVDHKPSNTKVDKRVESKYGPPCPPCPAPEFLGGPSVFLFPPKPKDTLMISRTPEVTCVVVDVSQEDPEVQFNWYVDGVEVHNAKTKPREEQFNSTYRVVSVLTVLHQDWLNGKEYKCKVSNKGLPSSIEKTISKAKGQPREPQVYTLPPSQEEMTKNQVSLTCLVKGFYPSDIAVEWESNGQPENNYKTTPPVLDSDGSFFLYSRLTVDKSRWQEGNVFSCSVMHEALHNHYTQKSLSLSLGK
light: QIVLTQSPAIMSASPGEKVTLTCSASSSVSSSYLYWYQQKPGSSPKLWIYSTSNLASGVPARFSGSGSGTSYSLTISSMEAEDAASYFCHQWSSYPRTFGAGTKLELKRTVAAPSVFIFPPSDEQLKSGTASVVCLLNNFYPREAKVQWKVDNALQSGNSQESVTEQDSKDSTYSLSSTLTLSKADYEKHKVYACEVTHQGLSSPVTKSFNRGEC
notes: also called KAWA23 analog; control antibody KWAR23 (QP026249), human IgG4
Regarding B4, the EC50 in test [1] came out at 0.418 nM; in test [5] it was 0.689 nM; in test [2] it was 0.115 nM; with QP093 (human SIRPα V1 …) it was 0.442 nM; in test [3], 0.804 nM; in the test with QP095 (human SIRPα V2 …) it was 0.467 nM. Moreover, the EC50 in test [4] is 0.261 nM.

B5: QP37503751 (1H9 analog) (antibody, human IgG1, kappa, N297A, V domains shown)
VH: QVQLVQSGAEVKKPGASVKVSCKASGYTFTSYWITWVKQAPGQGLEWIGDIYPGSGSTNHIEKFKSKATLTVDTSISTAYMELSRLRSDDTAVYYCATGYGSSYGYFDYWGQGTLVTVSS
VL: DIQMTQSPSSLSASVGDRVTITCRASENIYSYLAWYQQKPGKAPKLLIYTAKTLAEGVPSRFSGSGSGTDFTLTISSLQPEDFATYYCQHQYGPPFTFGQGTKLEIKR
notes: also called hz1H9 hIgG1(N297A)
Consider B5, for which the EC50 is 0.167 nM in test [1]; 0.908 nM in test [5]; 0.177 nM in the test with QP093 (human SIRPα V1 …); 0.438 nM in test [3]; 0.218 nM with QP095 (human SIRPα V2 …); 0.21 nM in test [4].
